Numbering of substitutions follows the chain as printed. Names may count otherwise. Where two headings read alike, the source gives them in different places. Values belong to the binder of their own block, whether it stands above or below them.
What was measured:
[1] = target: T1, human FcγRIIa type R extracellular domain with C-terminal His tag (human, UniProt P12318 34-217); experiment: SPR (Biacore)
T1 construct: extracellular domain; also called FcγRIIaR; FcgRIIaR
T1 sequence (looked up): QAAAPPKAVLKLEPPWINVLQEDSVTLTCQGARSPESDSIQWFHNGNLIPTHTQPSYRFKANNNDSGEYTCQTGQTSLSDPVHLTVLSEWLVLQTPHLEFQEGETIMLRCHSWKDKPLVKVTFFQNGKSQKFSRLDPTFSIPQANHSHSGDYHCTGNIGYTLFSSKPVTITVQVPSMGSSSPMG

[2] = target: T2, human FcγRIIIa type V extracellular domain with C-terminal His tag (human, UniProt P08637 17-208); experiment: SPR (Biacore)
T2 construct: extracellular domain; also called FcγRIIIaV; FcgRIIIaV
T2 sequence (P08637 17-208 F176V): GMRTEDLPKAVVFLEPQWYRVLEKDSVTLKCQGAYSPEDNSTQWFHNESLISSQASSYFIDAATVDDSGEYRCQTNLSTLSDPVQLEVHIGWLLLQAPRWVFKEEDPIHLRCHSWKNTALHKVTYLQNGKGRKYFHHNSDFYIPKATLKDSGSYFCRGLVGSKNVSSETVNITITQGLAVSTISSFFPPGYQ

[3] = target: T3, human FcγRIa extracellular domain with C-terminal His tag (human, UniProt P12314 16-292); experiment: SPR (Biacore), antibody captured, FcγR as analyte
T3 construct: also called FcgRIa
T3 sequence (P12314 16-292): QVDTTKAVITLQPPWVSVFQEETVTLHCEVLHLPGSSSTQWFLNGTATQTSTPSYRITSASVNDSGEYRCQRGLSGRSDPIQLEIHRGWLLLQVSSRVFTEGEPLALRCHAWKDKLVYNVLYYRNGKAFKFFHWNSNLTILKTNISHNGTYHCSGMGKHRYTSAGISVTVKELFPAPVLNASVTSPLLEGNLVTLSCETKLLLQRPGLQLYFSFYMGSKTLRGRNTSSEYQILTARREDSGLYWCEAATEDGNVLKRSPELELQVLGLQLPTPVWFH

[4] = target: T4, human FcγRIIa type R extracellular domain with C-terminal His tag (human, UniProt P12318 34-217); experiment: SPR (Biacore), antibody captured, FcγR as analyte
T4 construct: extracellular domain; also called FcγRIIaR; FcgRIIaR
T4 sequence (looked up): T1 sequence (looked up)

[5] = target: T5, human FcγRIIb extracellular domain with C-terminal His tag (human, UniProt P31994 43-217); experiment: SPR (Biacore), antibody captured, FcγR as analyte
T5 construct: extracellular domain; also called FcgRIIb
T5 sequence (looked up): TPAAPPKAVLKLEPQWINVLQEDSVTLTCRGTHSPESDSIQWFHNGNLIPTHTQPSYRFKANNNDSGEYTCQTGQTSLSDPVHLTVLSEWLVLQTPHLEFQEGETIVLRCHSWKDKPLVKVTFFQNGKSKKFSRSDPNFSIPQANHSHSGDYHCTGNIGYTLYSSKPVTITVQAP

[6] = target: T6, human FcγRIIa type R (R131) extracellular domain with C-terminal His tag (human, UniProt P12318 34-217); experiment: SPR (Biacore), antibody captured, FcγR analyte
T6 construct: extracellular domain; also called FcγRIIaR; not shown: His tag at the C terminus
T6 sequence (looked up): T1 sequence (looked up)

[7] = target: T7, human FcγRIa extracellular domain with C-terminal His tag (human, UniProt P12314 16-292); experiment: SPR (Biacore), antibody captured, FcγR analyte
T7 construct: not shown: His tag at the C terminus
T7 sequence (P12314 16-292): as the sequence (P12314 16-292) above

[8] = target: T8, human FcγRIIa type H (H131) extracellular domain with C-terminal His tag (human, UniProt P12318 34-217); experiment: SPR (Biacore), antibody captured, FcγR analyte
T8 construct: extracellular domain; also called FcγRIIaH; not shown: His tag at the C terminus
T8 sequence (looked up): T1 sequence (looked up) with R134H

[9] = target: T9, human FcγRIIa type R extracellular domain with C-terminal His tag (human, UniProt P12318 34-217); experiment: SPR, Ref. Ex. 25
T9 construct: extracellular domain; also called FcγRIIaR; FcγRIIa R
T9 sequence (looked up): T1 sequence (looked up)

[10] = target: T10, human FcγRIIb extracellular domain with C-terminal His tag (human, UniProt P31994 43-217); experiment: SPR, Ref. Ex. 25
T10 construct: extracellular domain; for crystals expressed with kifunensine and trimmed with Endo F1; also called FcγRIIb extracellular region
T10 sequence (looked up): T5 sequence (looked up)

[11] = target: T11, human FcγRIIIa type V extracellular domain with C-terminal His tag (human, UniProt P08637 17-208); experiment: SPR, Ref. Ex. 25
T11 construct: extracellular domain; also called FcγRIIIaV; FcγRIIIa V type
T11 sequence (P08637 17-208 F176V): as the sequence (P08637 17-208 F176V) above

[12] = target: T12, human FcγRIIa type H extracellular domain with C-terminal His tag (human, UniProt P12318 34-217); experiment: SPR (Biacore)
T12 construct: extracellular domain; also called FcγRIIaH; FcgRIIaH
T12 sequence (looked up): T1 sequence (looked up) with R134H

[13] = target: T13, human FcγRIIb extracellular domain with C-terminal His tag (human, UniProt P31994 43-217); experiment: SPR (Biacore), antibody captured, FcγR analyte
T13 construct: extracellular domain; not shown: His tag at the C terminus
T13 sequence (looked up): T5 sequence (looked up)

[14] = target: T14, human FcγRIIIa type V (allotype V158) extracellular domain with C-terminal His tag (human, UniProt P08637 17-208); experiment: SPR (Biacore), antibody captured, FcγR analyte
T14 construct: extracellular domain; also called FcγRIIIaV; FcγRIIIa V type; not shown: His tag at the C terminus
T14 sequence (P08637 17-208 F176V): as above

[15] = target: T15, human FcγRIIb extracellular domain with C-terminal His tag (human, UniProt P31994 43-217); experiment: SPR (Biacore), antibody captured, FcγR analyte; remark: listed apart in the source
T15 construct: extracellular domain; not shown: His tag at the C terminus
T15 sequence (looked up): T5 sequence (looked up)

[16] = target: T6, human FcγRIIa type R (R131) …; experiment: SPR (Biacore), antibody captured, FcγR analyte; remark: listed apart in the source

B6: IL6R-PD079/IL6R-L (antibody, human IgG1, kappa)
heavy: QVQLQESGPGLVKPSETLSLTCAVSGHSISHDHAWSWVRQPPGEGLEWIGFISYSGITNYNPSLQGRVTISRDNSKNTLYLQMNSLRAEDTAVYYCARSLARTTAMDYWGEGTLVTVSSASTKGPSVFPLAPSSKSTSGGTAALGCLVKDYFPEPVTVSWNSGALTSGVHTFPAVLQSSGLYSLSSVVTVPSSSLGTQTYICNVNHKPSNTKVDKKVEPKSCDKTHTCPPCPAPELLGADSVFLFPPKPKDTLYISRTPEVTCVVVDVSHEDPEVKFNWYVDGVEVHNAKTKPREEQYNSTYRVVSVLTVLHQDWLNGKEYKCKVSNKALPAPIEKTISKAKGQPREPQVYTLPPSRDELTKNQVSLTCLVKGFYPSDIAVEWESNGQPENNYKTTPPVLDSDGSFFLYSKLTVDKSRWQQGNVFSCSVMHEALHYHYTQKSLSLSP
light: not shown
notes: also called P238D/G237A; G237A/P238D; copies: 2 + 2
Kd [9]: 32 µM | Kd [10]: 3000 nM | Kd [11]: 37 µM

B8: IL6R-BP455/IL6R-L (antibody, human IgG1, kappa)
heavy: B6 heavy with E235D, A239D, Y254M, S269A, H270E, P273G, A332R, P398L, Y436N, K441E
light: not shown
notes: P396L introduced into IL6R-BP423; copies: 2 + 2
Kd [8]: 1600 nM | Kd [13]: 4 nM

B9: IL6R-BP217/IL6R-L (antibody, human IgG1, kappa)
heavy: B6 heavy with A239D, Y254M, S269Q, H270D, P273G, Y298D, A332K, Y436N, K441E
light: not shown
notes: copies: 2 + 2
Kd [14]: 60 µM

B10: IL6R-BP348/IL6R-L (antibody, human IgG1, kappa)
heavy: B6 heavy with E235D, A239D, Y254M, S269A, H270E, P273G, Y436N, K441E
light: not shown
notes: S267A introduced into IL6R-BP267; copies: 2 + 2
Kd [6]: 700 nM

B12: IL6R-BP228/IL6R-L (antibody, human IgG1, kappa)
heavy: B6 heavy with L236Y, A239D, Y254M, S269Q, H270D, P273G, K328D, A332R, Y436N, K441E
light: not shown
notes: copies: 2 + 2
Kd [15]: 40 nM

B13: IL6R-BP474/IL6R-L (antibody, human IgG1, kappa)
heavy: B6 heavy with E235D, A239D, Y254M, H270D, P273G, Y298D, A332S, P333S, Y436N, K441E
light: not shown
notes: A330S and P331S introduced into IL6R-BP230; copies: 2 + 2
Kd [16]: 3000 nM

B14: IL6R-BP447/IL6R-L (antibody, human IgG1, kappa)
heavy: B6 heavy with E235D, A239D, Y254M, S269A, H270E, P273G, A332R, P398A, Y436N, K441E
light: not shown
notes: P396A introduced into IL6R-BP423; copies: 2 + 2
Kd [7]: 0.9 nM | Kd [8]: 2000 nM

More lines, now with the values ahead:

Kd [1]: 5 µM | Kd [2]: 50 µM
B1: IL6R-2B253/IL6R-L (antibody, human IgG1, kappa)
heavy: B6 heavy with E235D, A239G, Y254M, V325M, Y436N, K441E
light: not shown
notes: EU numbering; alterations on IL6R-B3; copies: 2 + 2

Kd [1]: 4.2 µM | Kd [2]: 68 µM
B2: IL6R-BP085/IL6R-L (antibody, human IgG1, kappa)
heavy: B6 heavy with A239D, Y254M, A332K, Y436N, K441E
light: not shown
notes: as for B1

Kd [3]: 3 nM | Kd [4]: 6.1 µM | KD(IIb) of parent polypeptide/KD(IIb) of altered polypeptide [5]: 4 fold vs IL6R-B3/IL6R-L
B3: IL6R-2B172/IL6R-L (antibody, human IgG1, kappa)
heavy: B6 heavy with A239G, Y254M, V325M, Y436N, K441E
light: not shown
notes: IgG1 type

Kd [6]: 3000 nM
B4: IL6R-BP514/IL6R-L (antibody, human IgG1, kappa)
heavy: B6 heavy with E235D, A239D, Y254M, H270E, P273G, E274F, Y436N, K441E
light: not shown
notes: E272F introduced into IL6R-BP267; copies: 2 + 2

Kd [7]: 0.6 nM | Kd [8]: 2000 nM
B5: IL6R-BP456/IL6R-L (antibody, human IgG1, kappa)
heavy: B6 heavy with E235D, A239D, Y254M, S269A, H270E, P273G, A332R, P398M, Y436N, K441E
light: not shown
notes: P396M introduced into IL6R-BP423; copies: 2 + 2

Kd [1]: 8 µM | Kd [12]: 30 µM
B7: IL6R-BP132/IL6R-L (antibody, human IgG1, kappa)
heavy: B6 heavy with E235D, A239G, Y254M, K328A, A332K, Y436N, K441E
light: not shown
notes: as for B1

Kd [3]: 4 nM | Kd [4]: 11 µM | KD(IIb) of parent polypeptide/KD(IIb) of altered polypeptide [5]: 3.3 fold vs IL6R-B3/IL6R-L
B11: IL6R-BP106/IL6R-L (antibody, human IgG1, kappa)
heavy: B6 heavy with A239G, Y254M, H270D, Y436N, K441E
light: not shown
notes: IgG1 type
